# T1: Polycystin 2 (PC2), human, endogenous in PTEC (human (endogenous in PTEC), UniProt Q13563 1-968)
# T1 construct: Polycystin 2 (PC2), encoded by the PKD2 gene, human, endogenous in PTEC; no construct, no residues stated; Endogenous protein, immunoprecipitated with anti-Polycystin-2 antibodies (Santa Cruz)
# T1 sequence (looked up): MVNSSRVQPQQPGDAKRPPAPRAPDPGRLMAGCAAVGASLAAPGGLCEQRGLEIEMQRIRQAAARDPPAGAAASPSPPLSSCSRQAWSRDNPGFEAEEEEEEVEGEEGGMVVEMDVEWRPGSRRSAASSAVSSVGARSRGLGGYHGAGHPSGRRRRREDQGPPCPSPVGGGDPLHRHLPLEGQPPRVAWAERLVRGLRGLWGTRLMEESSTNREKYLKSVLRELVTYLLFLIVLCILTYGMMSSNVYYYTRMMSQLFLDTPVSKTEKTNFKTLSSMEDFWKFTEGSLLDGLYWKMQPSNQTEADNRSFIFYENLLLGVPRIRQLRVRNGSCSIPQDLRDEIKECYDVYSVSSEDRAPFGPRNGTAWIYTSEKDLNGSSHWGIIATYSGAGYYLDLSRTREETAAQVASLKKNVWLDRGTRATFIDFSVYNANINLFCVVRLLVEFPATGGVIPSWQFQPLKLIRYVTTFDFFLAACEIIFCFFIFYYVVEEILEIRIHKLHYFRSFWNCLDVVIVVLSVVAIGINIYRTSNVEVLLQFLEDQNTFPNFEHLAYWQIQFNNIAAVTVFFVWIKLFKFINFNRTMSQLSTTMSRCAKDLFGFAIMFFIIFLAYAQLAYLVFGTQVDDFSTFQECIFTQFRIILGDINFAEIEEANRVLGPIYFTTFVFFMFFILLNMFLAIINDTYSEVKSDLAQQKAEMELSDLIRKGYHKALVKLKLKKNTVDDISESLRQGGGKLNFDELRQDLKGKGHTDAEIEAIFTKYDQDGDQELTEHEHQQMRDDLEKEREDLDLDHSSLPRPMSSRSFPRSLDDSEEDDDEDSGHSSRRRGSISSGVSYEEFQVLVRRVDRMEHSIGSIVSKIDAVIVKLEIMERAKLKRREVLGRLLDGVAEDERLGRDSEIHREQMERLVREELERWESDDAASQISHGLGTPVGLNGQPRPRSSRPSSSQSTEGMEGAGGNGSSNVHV
# Target: T1, Polycystin 2 (PC2), human, endogenous …
# Experiment: co-IP; PTEC wt and PC1KD (PKD1 knocked down) lysates (1% Triton X-100, 150 mM NaCl, 25 mM Hepes pH 7.4); anti-PC2 antibodies coupled to protein A-Sepharose, overnight; immunoblot with anti-CaSR and anti-PC2
# Settings: partners not purified
binder,measurement,value
"Calcium Sensing Receptor (CaSR), human, endogenous in PTEC (receptor, human (endogenous in PTEC), UniProt P41180 20-1078, looked up, Calcium sensing receptor (CaSR), human, endogenous in PTEC; no construct, no residues stated; Endogenous protein, detected with a monoclonal anti-CaSR antibody (Sigma C0493); also called extracellular calcium sensing receptor) YGPDQRAQKKGDIILGGLFPIHFGVAAKDQDLKSRPESVECIRYNFRGFRWLQAMIFAIEEINSSPALLPNLTLGYRIFDTCNTVSKALEATLSFVAQNKIDSLNLDEFCNCSEHIPSTIAVVGATGSGVSTAVANLLGLFYIPQVSYASSSRLLSNKNQFKSFLRTIPNDEHQATAMADIIEYFRWNWVGTIAADDDYGRPGIEKFREEAEERDICIDFSELISQYSDEEEIQHVVEVIQNSTAKVIVVFSSGPDLEPLIKEIVRRNITGKIWLASEAWASSSLIAMPQYFHVVGGTIGFALKAGQIPGFREFLKKVHPRKSVHNGFAKEFWEETFNCHLQEGAKGPLPVDTFLRGHEESGDRFSNSSTAFRPLCTGDENISSVETPYIDYTHLRISYNVYLAVYSIAHALQDIYTCLPGRGLFTNGSCADIKKVEAWQVLKHLRHLNFTNNMGEQVTFDECGDLVGNYSIINWHLSPEDGSIVFKEVGYYNVYAKKGERLFINEEKILWSGFSREVPFSNCSRDCLAGTRKGIIEGEPTCCFECVECPDGEYSDETDASACNKCPDDFWSNENHTSCIAKEIEFLSWTEPFGIALTLFAVLGIFLTAFVLGVFIKFRNTPIVKATNRELSYLLLFSLLCCFSSSLFFIGEPQDWTCRLRQPAFGISFVLCISCILVKTNRVLLVFEAKIPTSFHRKWWGLNLQFLLVFLCTFMQIVICVIWLYTAPPSSYRNQELEDEIIFITCHEGSLMALGFLIGYTCLLAAICFFFAFKSRKLPENFNEAKFITFSMLIFFIVWISFIPAYASTYGKFVSAVEVIAILAASFGLLACIFFNKIYIILFKPSRNTIEEVRCSTAAHAFKVAARATLRRSNVSRKRSSSLGGSTGSTPSSSISSKSNSEDPFPQPERQKQQQPLALTQQEQQQQPLTLPQQQRSQQQPRCKQKVIFGSGTVTFSLSFDEPQKNAMAHRNSTHQNSLEAQKSSDTLTRHEPLLPLQCGETDLDLTVQETGLQGPVGGDQRPEVEDPEELSPALVVSSSQSFVISGGGSTVTENVVNS",amount of CaSR immunoprecipitated with PC2 in PC1KD cells relative to wt (ratio CaSR/PC2),1.34 fold (wt = 1)
